Measured values published in paper PMC8219380, “The discriminatory power of the T cell receptor” (eLife, 2021).

How the values were obtained:
[1] = test system: CD8+ T cell blasts expressing 1G4 TCR; assay: TCR downregulation (tetramer gMFI), plate-bound pMHC + CD58; type: cell-based, human
Description: (§1) Figure 4. The T cell discriminatory power is enhanced by ligation of the receptors CD2 or LFA-1. (A) Protocol for stimulation of CD8^+ T cell blasts with plate-bound recombinant ligands. (B, C) Example dose-response curve for 1G4 T cell blasts stimulated with (B) peptides presented on major histocompatibility complex (pMHC) alone or (C) in combination with CD58 or ICAM1. (D, E) Potency derived from dose-response curves over KD showing the power function fit (D) with pMHC alone or (E) in combination with CD58 or ICAM1. (F) Comparison of the fitted discrimination power (α) and (G) fitted sensitivity ( C ). Shown are geometric means with each dot representing an independent experiment (n = 4–5). (F) In grey the result of a statistical test vs. 1 is shown (p=0.09 for pMHC, p=0.002 for CD58 and ICAM1, p=0.0002 for U87/1G4). Figure 4—source data 1. CD69 dose-response data for Figure 4. […]
(§2) For stimulation, T cells were counted, washed once to remove excess IL2, and 75,000 cells in 180–200 μl complete RMPI were dispensed per well. […] Cells were stained for flow cytometry and analysed immediately, or fixed and stored for up to 1 day. […]
(§3) Tetramers were produced in-house using refolded monomeric, biotinylated pMHC, and streptavidin-PE (Biolegend) at a 1:4 molar ratio. […] Samples were analysed using a BD X-20 flow cytometer, and data analysis was performed using FlowJo v10 (BD Biosciences).

[2] = test system: CD8+ T cell blasts expressing 1G4 TCR; assay: TCR downregulation (tetramer gMFI), plate-bound pMHC + ICAM1; type: cell-based, human
Description: as §1, §2, §3

CXCR4 = assay: Discrimination power from published data: CXCR4; settings: ID 21; output Voltage; n 5; ns; ref Guyon 2013
Description: The broad method was to obtain a measure of ligand potency from each study. […] If not explicitly provided, we estimated ligand potency as PX , which was defined by the concentration of ligand that produced X response. To do this, we drew a horizontal line at X on a provided dose-response graph and estimated the ligand concentration where the data intercepted the horizontal line. The disadvantage with this method is that ligand potency was estimated based on the single representative graph provided in the study.
Each study often contained or cited a study that contained estimates of KD or koff for the specific TCR/pMHC interactions used in the study. We only included studies where monomeric SPR binding data was available to avoid multimeric binding parameters (e.g. when using tetramers). However, when analysing discrimination by other non-TCR receptors, we included binding data from various methods (e.g. SPR, radio labelled ligands) provided they were monomeric measurements. The use of SPR is important for weak interactions, such as TCR/pMHC, but various methods are available for higher-affinity interactions.
The plot of potency over KD or k off was fit using linear regression on log-transformed axes. We reported the slope of the fit (i.e. the discrimination power, α), the goodness-of-fit measure ( R^2 ), and the p-value for the null hypothesis that the slope is zero (i.e. α=0 ). […]

B1: CD58: soluble extracellular domain of human CD58, the ligand to CD2 (protein, UniProt P19256 29-215, looked up)
extracellular domain: FSQQIYGVVYGNVTFHVPSNVPLKEVLWKKQKDKVAELENSEFRAFSSFKNRVYLDTVSGSLTIYNLTSSDEDEYEMESPNITDTMKFFLYVLESLPSPTLTCALTNGSIEVQCMIPEHYNSHRGLIMYSWDCPMEQCKRNSTSIYFKMENDLPQKIQCTLSNPLFNTTSSIILTTCIPSSGHSRHR
modifications: extracellular domain
notes: soluble extracellular domain of human CD58, the ligand to CD2
For B1, the TCR downregulation [1] was “increased TCR downregulation”.

B2: ICAM1: human ICAM1 ECD, a ligand of LFA-1 (protein, UniProt P05362 28-480, looked up)
extracellular domain: QTSVSPSKVILPRGGSVLVTCSTSCDQPKLLGIETPLPKKELLLPGNNRKVYELSNVQEDSQPMCYSNCPDGQSTAKTFLTVYWTPERVELAPLPSWQPVGKNLTLRCQVEGGAPRANLTVVLLRGEKELKREPAVGEPAEVTTTVLVRRDHHGANFSCRTELDLRPQGLELFENTSAPYQLQTFVLPATPPQLVSPRVLEVDTQGTVVCSLDGLFPVSEAQVHLALGDQRLNPTVTYGNDSFSAKASVSVTAEDEGTQRLTCAVILGNQSQETLQTVTIYSFPAPNVILTKPEVSEGTEVTVKCEAHPRAKVTLNGVPAQPLGPRAQLLLKATPEDNGRSFSCSATLEVAGQLIHKNQTRELRVLYGPRLDERDCPGNWTWPENSQQTPMCQAWGNPLPELKCLKDGTFPLPIGESVTVTRDLEGTYLCRARSTQGEVTRKVTVNVLSPRYE
modifications: extracellular domain
In the case of B2, the TCR downregulation [2] is reported as “increased TCR downregulation”.

B3: CXCR4: receptor tested with Baclofen and other GABA ligands (protein, UniProt P61073 1-352, looked up)
C-X-C chemokine receptor type …: MEGISIYTSDNYTEEMGSGDYDSMKEPCFREENANFNKIFLPTIYSIIFLTGIVGNGLVILVMGYQKKLRSMTDKYRLHLSVADLLFVITLPFWAVDAVANWYFGNFLCKAVHVIYTVNLYSSVLILAFISLDRYLAIVHATNSQRPRKLLAEKVVYVGVWIPALLLTIPDFIFANVSEADDRYICDRFYPNDLWVVVFQFQHIMVGLILPGIVILSCYCIIISKLSHSKGHQKRKALKTTVILILAFFACWLPYYIGISIDSFILLEIIKQGCEFENTVHKWISITEALAFFHCCLNPILYAFLGAKFKTSAQHALTSVSRGSSLKILSKGKRGGHSSVSTESESSSFHSS
B3 was tested, and the “Power (discrimination power)” value (CXCR4) was 0.5686.
